Columns and labels:
Assay in all cases: BLI
SUMO-FtsZ^370-383 = biological target: T1, SUMO-FtsZ^370-383 (Escherichia coli, UniProt P0A9A6 370-383)
T1 chain: DYLDIPAFLRKQAD

SUMO-FtsZ^316-370 = biological target: T2, SUMO-FtsZ^316-370 (Escherichia coli, UniProt P0A9A6 316-370)
T2 chain: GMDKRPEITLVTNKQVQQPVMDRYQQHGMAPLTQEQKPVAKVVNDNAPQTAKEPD

6×His-ZapC^F30D = 6×His-ZapC^F30D (Escherichia coli, UniProt P75862 1-180, F30D)
6×His-ZapC^K94D = 6×His-ZapC^K94D (Escherichia coli, UniProt P75862 1-180, K94D)

| Binder | Kd (SUMO-FtsZ^370-383) | Kd (SUMO-FtsZ^316-370) | Kd (6×His-ZapC^F30D) | Kd (6×His-ZapC^K94D) |
| --- | --- | --- | --- | --- |
| ZapC (untagged) (natural protein) not shown | 11.4 µM | 50.7 µM | – | – |
| FtsZ (wild-type, untagged) (natural protein) MFEPMELTNDAVIKVIGVGGGGGNAVEHMVRERIEGVEFFAVNTDAQALRKTAVGQTIQIGSGITKGLGAGANPEVGRNAADEDRDALRAALEGADMVFIAAGMGGGTGTGAAPVVAEVAKDLGILTVAVVTKPFNFEGKKRMAFAEQGITELSKHVDSLITIPNDKLLKVLGRGISLLDAFGAANDVLKGAVQGIAELITRPGLMNVDFADVRTVMSEMGYAMMGSGVASGEDRAEEAAEMAISSPLLEDIDLSGARGVLVNITAGFDLRLDEFETVGNTIRAFASDNATVVIGTSLDPDMNDELRVTVVATGIGMDKRPEITLVTNKQVQQPVMDRYQQHGMAPLTQEQKPVAKVVNDNAPQTAKEPDYLDIPAFLRKQAD | – | – | 2.97 µM | 2.1 µM |
